The text below walks through data of publication PMC6181919.

Broadly, the stoichiometry N is the number of molecules, sites or subunits per partner or assembly.

Experiment [1] concerns the target FLAG-tagged Ser1169Cys (S2C) C-Proα2(I) (human). Put plainly: non-reducing SDS-PAGE immunoblot; wild-type C-Proα1(I) and S2C C-Proα2(I) co-expressed at 1:1, 2:1 and 5:1; media depleted by HA immunoprecipitation, unbound fraction FLAG-immunoprecipitated, elutions on a non-reducing SDS-PAGE gel.
The target is the same in experiment [2]. Put plainly: non-reducing SDS-PAGE immunoblot; conditioned media of transfected HEK293 cells, treated with 100 mM iodoacetamide, boiled in SDS, 12% gel, non-reducing; denaturing, shows disulfide-linked species only; two-colour detection of HA and FLAG. (In general: A western blot detects proteins with antibodies after separation by electrophoresis.)
Experiment [3] has the same target. Description: co-IP; sequential: conditioned media of co-transfected HEK293 cells, anti-FLAG beads (C-Proα2(I)), FLAG peptide elution, then HA beads (C-Proα1(I)); non-reducing, washes with 50 mM EDTA to deplete Ca^2+, 4 °C; reducing SDS-PAGE immunoblot; ratio by quantified blots.
Experiment [4] addresses purified S2C (Ser1169Cys) C-Proα2(I), His tag cleaved (human). Put plainly: AUC; sedimentation equilibrium, 25 °C, 20 mM Bis-Tris propane pH 7, 150 mM NaCl, with 0.5 mM CaCl2; monomer to trimer.
Experiment [5] has the same target. Description: AUC; sedimentation equilibrium, 25 °C, 20 mM Bis-Tris propane pH 7, 150 mM NaCl, without Ca^2+; equilibrium constants are of monomer to dimer.
In experiment [6] the target is purified wild-type C-Proα2(I), His tag cleaved (human). Put plainly: AUC; sedimentation equilibrium, 25 °C, 20 mM Bis-Tris propane pH 7, 150 mM NaCl, with 0.5 mM CaCl2; monomer to trimer.
The target is the same in experiment [7]. Put plainly: AUC; sedimentation equilibrium, 25 °C, 20 mM Bis-Tris propane pH 7, 150 mM NaCl, without Ca^2+; equilibrium constants are of monomer to dimer.
The target in experiment [8] is wild-type, FLAG-tagged C-Proα2(I) (C-propeptide domain of human Colα2(I)) (human). Description: co-IP; sequential: conditioned media of co-transfected HEK293 cells, anti-FLAG beads (C-Proα2(I)), FLAG peptide elution, then HA beads (C-Proα1(I)); non-reducing, washes with 50 mM EDTA to deplete Ca^2+, 4 °C; reducing SDS-PAGE immunoblot; ratio by quantified blots.
Chain of wild-type, FLAG-tagged C-Proα2(I) (C-propeptide domain of human Colα2(I)) (human) (P08123 23-1366): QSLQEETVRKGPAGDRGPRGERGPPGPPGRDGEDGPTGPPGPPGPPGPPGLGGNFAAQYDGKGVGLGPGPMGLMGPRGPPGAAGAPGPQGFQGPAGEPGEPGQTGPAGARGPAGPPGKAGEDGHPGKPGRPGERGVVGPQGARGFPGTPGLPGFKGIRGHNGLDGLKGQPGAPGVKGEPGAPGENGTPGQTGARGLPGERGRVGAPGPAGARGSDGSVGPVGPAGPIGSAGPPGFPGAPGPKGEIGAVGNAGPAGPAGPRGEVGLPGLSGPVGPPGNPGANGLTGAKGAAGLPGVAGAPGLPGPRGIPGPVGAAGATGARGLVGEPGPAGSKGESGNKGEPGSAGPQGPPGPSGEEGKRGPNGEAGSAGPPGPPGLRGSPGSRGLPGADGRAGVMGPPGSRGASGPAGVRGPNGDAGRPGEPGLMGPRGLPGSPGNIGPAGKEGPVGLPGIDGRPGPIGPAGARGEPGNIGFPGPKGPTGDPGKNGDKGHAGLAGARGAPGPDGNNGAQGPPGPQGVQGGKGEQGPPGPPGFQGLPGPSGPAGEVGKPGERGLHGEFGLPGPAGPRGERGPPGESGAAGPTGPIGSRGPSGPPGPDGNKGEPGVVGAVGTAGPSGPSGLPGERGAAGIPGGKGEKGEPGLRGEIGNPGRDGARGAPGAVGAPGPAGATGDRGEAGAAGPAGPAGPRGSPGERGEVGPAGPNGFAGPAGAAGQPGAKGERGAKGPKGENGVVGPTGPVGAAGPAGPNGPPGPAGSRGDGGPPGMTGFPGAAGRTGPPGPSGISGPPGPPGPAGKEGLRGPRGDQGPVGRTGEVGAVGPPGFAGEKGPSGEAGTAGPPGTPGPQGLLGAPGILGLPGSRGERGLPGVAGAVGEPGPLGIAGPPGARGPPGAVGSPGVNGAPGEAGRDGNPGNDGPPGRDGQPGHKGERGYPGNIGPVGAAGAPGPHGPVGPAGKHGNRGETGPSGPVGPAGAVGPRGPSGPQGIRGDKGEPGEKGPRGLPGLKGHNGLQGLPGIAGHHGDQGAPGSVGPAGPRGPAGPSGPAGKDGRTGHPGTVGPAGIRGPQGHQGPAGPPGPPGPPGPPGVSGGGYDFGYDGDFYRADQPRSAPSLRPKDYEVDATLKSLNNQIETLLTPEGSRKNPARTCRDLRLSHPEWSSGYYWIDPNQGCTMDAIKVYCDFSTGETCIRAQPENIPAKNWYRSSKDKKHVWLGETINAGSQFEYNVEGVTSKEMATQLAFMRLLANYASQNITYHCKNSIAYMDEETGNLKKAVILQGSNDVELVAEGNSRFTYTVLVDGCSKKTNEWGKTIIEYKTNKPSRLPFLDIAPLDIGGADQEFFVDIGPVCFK
The target in experiment [9] is wild-type, HA-tagged C-Proα1(III) (human). Description: non-reducing SDS-PAGE immunoblot; conditioned media of transfected HEK293 cells, treated with 100 mM iodoacetamide, boiled in SDS, 12% gel, non-reducing; denaturing, shows disulfide-linked species only; two-colour detection of HA and FLAG.

Consider “FLAG-tagged Ser1169Cys (S2C) C-Proα2(I) (domain or fragment)”, for which the stoichiometry N in experiment [1] and in [2] was 3 in each case. Turning to “HA-tagged Cys1265Ser (C2S) C-Proα1(I) (from UniProt P02452 1219-1464) (domain or fragment)”, the stoichiometry N (C-Proα1(I):C-Proα2(I)) in [3] was found to be 0.5. As for “purified S2C (Ser1169Cys) C-Proα2(I), His tag cleaved (domain or fragment)”, the stoichiometry N in [4] and in experiment [5] was 3 throughout. Consider “purified wild-type C-Proα2(I), His tag cleaved (domain or fragment)”, for which the stoichiometry N in experiment [6] stood at 3; in experiment [7] it was 2. In experiment [7], this substance had a Ka of 6500 M⁻¹.

Take “wild-type, HA-tagged C-Proα1(I) (C-propeptide domain of human Colα1(I)) (from UniProt P02452 1219-1464) (domain or fragment)”: the stoichiometry N (C-Proα1(I):C-Proα2(I)) in [8] and in experiment [3] was 2 each time. In the case of “wild-type, HA-tagged C-Proα1(III) (domain or fragment)”, the stoichiometry N in experiment [9] amounted to 3.
